Data published in patent publication US20160113911A1, “METHODS AND COMPOSITIONS FOR THE TREATMENT OF CANCER” (THE GENERAL HOSPITAL CORPORATION, priority 2013, published 2016).

Key:
[1] = tested on: cells depleted of KDM4A (shA10); assay: Rapamycin sensitivity of KDM4A-depleted (shA10) cells transfected with wild-type or mutant KDM4A; assay type: cell-based; settings: shA10 depletion background
Protocol: Cells were depleted of KDM4A (shA10) and transfected with wild-type (WT) or mutant KDM4A. […] This differed from WT expression in the depletion background, which was less sensitive. […]
The effect of KMD4A mutations on drug sensitivity was examined by depleting cells of KDM4A (shA10) and then transfecting with wild-type or mutant KDM4A. The sensitivity of the cells to rapamycin was then determined. […] This differed from WT expression in the depletion background, which was less sensitive.

[2] = tested on: H3K9me3; assay: H3K9 demethylase activity of KDM4 variants in transfected cells; assay type: cell-based; set-up: key: + indicates active; − indicates inactive; +/− indicates partial acitivty; settings: KDM4A mutations
[3] = tested on: H3K36me3; assay: H3K36 demethylase activity of KDM4A variants in transfected cells (immunofluorescence); assay type: cell-based; set-up: key: + indicates active; − indicates inactive; +/− indicates partial acitivty; settings: KDM4A mutations
[4] = tested on: HEK 293T cells; assay: Monitored cell proliferation assay (xCELLigence growth curves, doubling time); assay type: cell-based, human
Protocol: Seventy two hours post transfection 1×10^4 HEK 293T cells were seeded per well of a 96 well plate, and then treated after 24h. Cell proliferation was monitored with an xCELLigence system (Roche) (Vistejnova et al., 2009).

B1: H188A: catalytic mutant of KDM4A (protein, UniProt O75164 2-1064, looked up, variant H188A)
Lysine-specific demethylase 4A: ASESETLNPSARIMTFYPTMEEFRNFSRYIAYIESQGAHRAGLAKVVPPKEWKPRASYDDIDDLVIPAPIQQLVTGQSGLFTQYNIQKKAMTVREFRKIANSDKYCTPRYSEFEELERKYWKNLTFNPPIYGADVNGTLYEKHVDEWNIGRLRTILDLVEKESGITIEGVNTPYLYFGMWKTSFAWATEDMDLYSINYLHFGEPKSWYSVPPEHGKRLERLAKGFFPGSAQSCEAFLRHKMTLISPLMLKKYGIPFDKVTQEAGEFMITFPYGYHAGFNHGFNCAESTNFATRRWIEYGKQAVLCSCRKDMVKISMDVFVRKFQPERYKLWKAGKDNTVIDHTLPTPEAAEFLKESELPPRAGNEEECPEEDMEGVEDGEEGDLKTSLAKHRIGTKRHRVCLEIPQEVSQSELFPKEDLSSEQYEMTECPAALAPVRPTHSSVRQVEDGLTFPDYSDSTEVKFEELKNVKLEEEDEEEEQAAAALDLSVNPASVGGRLVFSGSKKKSSSSLGSGSSRDSISSDSETSEPLSCRAQGQTGVLTVHSYAKGDGRVTVGEPCTRKKGSAARSFSERELAEVADEYMFSLEENKKSKGRRQPLSKLPRHHPLVLQECVSDDETSEQLTPEEEAEETEAWAKPLSQLWQNRPPNFEAEKEFNETMAQQAPHCAVCMIFQTYHQVEFGGFNQNCGNASDLAPQKQRTKPLIPEMCFTSTGCSTDINLSTPYLEEDGTSILVSCKKCSVRVHASCYGVPPAKASEDWMCSRCSANALEEDCCLCSLRGGALQRANDDRWVHVSCAVAILEARFVNIAERSPVDVSKIPLPRFKLKCIFCKKRRKRTAGCCVQCSHGRCPTAFHVSCAQAAGVMMQPDDWPFVVFITCFRHKIPNLERAKGALQSITAGQKVISKHKNGRFYQCEVVRLTTETFYEVNFDDGSFSDNLYPEDIVSQDCLQFGPPAEGEVVQVRWTDGQVYGAKFVASHPIQMYQVEFEDGSQLVVKRDDVYTLDEELPKRVKSRLSVASDMRFNEIFTEKEVKQEKKRQRVINSRYREDYIEPALYRAIME
- sensitivity of cells to rapamycin [1]: did not reduce drug sensitivity

B2: 2A-R1025C*: KDM4A mutation (protein, UniProt O75164 2-1064, looked up, variant R1025C)
Lysine-specific demethylase 4A: ASESETLNPSARIMTFYPTMEEFRNFSRYIAYIESQGAHRAGLAKVVPPKEWKPRASYDDIDDLVIPAPIQQLVTGQSGLFTQYNIQKKAMTVREFRKIANSDKYCTPRYSEFEELERKYWKNLTFNPPIYGADVNGTLYEKHVDEWNIGRLRTILDLVEKESGITIEGVNTPYLYFGMWKTSFAWHTEDMDLYSINYLHFGEPKSWYSVPPEHGKRLERLAKGFFPGSAQSCEAFLRHKMTLISPLMLKKYGIPFDKVTQEAGEFMITFPYGYHAGFNHGFNCAESTNFATRRWIEYGKQAVLCSCRKDMVKISMDVFVRKFQPERYKLWKAGKDNTVIDHTLPTPEAAEFLKESELPPRAGNEEECPEEDMEGVEDGEEGDLKTSLAKHRIGTKRHRVCLEIPQEVSQSELFPKEDLSSEQYEMTECPAALAPVRPTHSSVRQVEDGLTFPDYSDSTEVKFEELKNVKLEEEDEEEEQAAAALDLSVNPASVGGRLVFSGSKKKSSSSLGSGSSRDSISSDSETSEPLSCRAQGQTGVLTVHSYAKGDGRVTVGEPCTRKKGSAARSFSERELAEVADEYMFSLEENKKSKGRRQPLSKLPRHHPLVLQECVSDDETSEQLTPEEEAEETEAWAKPLSQLWQNRPPNFEAEKEFNETMAQQAPHCAVCMIFQTYHQVEFGGFNQNCGNASDLAPQKQRTKPLIPEMCFTSTGCSTDINLSTPYLEEDGTSILVSCKKCSVRVHASCYGVPPAKASEDWMCSRCSANALEEDCCLCSLRGGALQRANDDRWVHVSCAVAILEARFVNIAERSPVDVSKIPLPRFKLKCIFCKKRRKRTAGCCVQCSHGRCPTAFHVSCAQAAGVMMQPDDWPFVVFITCFRHKIPNLERAKGALQSITAGQKVISKHKNGRFYQCEVVRLTTETFYEVNFDDGSFSDNLYPEDIVSQDCLQFGPPAEGEVVQVRWTDGQVYGAKFVASHPIQMYQVEFEDGSQLVVKRDDVYTLDEELPKRVKSRLSVASDMCFNEIFTEKEVKQEKKRQRVINSRYREDYIEPALYRAIME
- H3k9 Demethylase Activity [2]: +
- H3k36 Demethylase Activity [3]: +
- sensitivity of cells to rapamycin [1]: equally as sensitive as KDM4A/JMJD2A depletion

B3: KDM4A WT: wild type KDM4A (major allele E482) (protein)
chain: MASESETLNPSARIMTFYPTMEEFRNFSRYIAYIESQGAHRAGLAKVVPPKEWKPRASYDDIDDLVIPAPIQQLVTGQSGLFTQYNIQKKAMTVREFRKIANSDKYCTPRYSEFEELERKYWKNLTFNPPIYGADVNGTLYEKHVDEWNIGRLRTILDLVEKESGITIEGVNTPYLYFGMWKTSFAWHTEDMDLYSINYLHFGEPKSWYSVPPEHGKRLERLAKGFFPGSAQSCEAFLRHKMTLISPLMLKKYGIPFDKVTQEAGEFMITFPYGYHAGFNHGFNCAESTNFATRRWIEYGKQAVLCSCRKDMVKISMDVFVRKFQPERYKLWKAGKDNTVIDHTLPTPEAAEFLKESELPPRAGNEEECPEEDMEGVEDGEEGDLKTSLAKHRIGTKRHRVCLEIPQEVSQSELFPKEDLSSEQYEMTECPAALAPVRPTHSSVRQVEDGLTFPDYSDSTEVKFEELKNVKLEEEDEEEEQEAAALDLSVNPASVGGRLVFSGSKKKSSSSLGSGSSRDSISSDSETSEPLSCRAQGQTGVLTVHSYAKGDGRVTVGEPCTRKKGSAARSFSERELAEVADEYMFSLEENKKSKGRRQPLSKLPRHHPLVLQECVSDDETSEQLTPEEEAEETEAWAKPLSQLWQNRPPNFEAEKEFNETMAQQAPHCAVCMIFQTYHQVEFGGFNQNCGNASDLAPQKQRTKPLIPEMCFTSTGCSTDINLSTPYLEEDGTSILVSCKKCSVRVHASCYGVPPAKASEDWMCSRCSANALEEDCCLCSLRGGALQRANDDRWVHVSCAVAILEARFVNIAERSPVDVSKIPLPRFKLKCIFCKKRRKRTAGCCVQCSHGRCPTAFHVSCAQAAGVMMQPDDWPFVVFITCFRHKIPNLERAKGALQSITAGQKVISKHKNGRFYQCEVVRLTTETFYEVNFDDGSFSDNLYPEDIVSQDCLQFGPPAEGEVVQVRWTDGQVYGAKFVASHPIQMYQVEFEDGSQLVVKRDDVYTLDEELPKRVKSRLSVASDMRFNEIFTEKEVKQEKKRQRVINSRYREDYIEPALYRAIME
modifications: left off: large carriers
- rescue of increased sensitivity to AZD8055 due to KDM4A depletion (doubling time 5h-35h) ([4]; shRNA KDM4A plus non targetable GFP-KDM4A constructs): rescues
- rescue of increased sensitivity to Rapamycin of KDM4A depleted cells (doubling time 5h-35h) ([4]; shRNA KDM4A plus shRNA-resistant GFP-KDM4A constructs): rescues
- sensitivity of cells to rapamycin [1]: reduced the sensitivity of the cells
